These results are taken from paper PMC7986633 (Angewandte Chemie (International Ed. in English), 2021).

The data set “native MS” concerns the molecule itself. The experiment in a line: native MS.
The data set “SEC-MALS + other: SAXS” concerns the molecule itself. Briefly: SEC-MALS + other: SAXS. (In general: Size exclusion chromatography separates by hydrodynamic size, large species first.)

B1: ECSITCTD (C‐terminal fragment of ECSIT, residues 248–431), purified (domain or fragment)
chain: PLPKDSTGAADPPQPHIVGIQSPDQQAALARHNPARPVFVEGPFSLWLRNKCVYYHILRADLLPPEEREVEETPEEWNLYYPMQLDLEYVRSGWDNYEFDINEVEEGPVFAMCMAGAHDQATMAKWIQGLQETNPTLAQIPVVFRLAGSTRELQTSSAGLEEPPLPEDHQEEDDNLQRQQQGQS
Usually stoichiometry N stands for a count of units in the complex or per binding partner. For the protein B1, the “stoichiometry N” value in the data set “native MS” is at least 4; in the data set “SEC-MALS + other: SAXS”, 2.

B2: ACAD9 (residues 38–621), recombinant, purified (enzyme)
chain: AFAKELFLGKIKKKEVFPFPEVSQDELNEINQFLGPVEKFFTEEVDSRKIDQEGKIPDETLEKLKSLGLFGLQVPEEYGGLGFSNTMYSRLGEIISMDGSITVTLAAHQAIGLKGIILAGTEEQKAKYLPKLASGEHIAAFCLTEPASGSDAASIRSRATLSEDKKHYILNGSKVWITNGGLANIFTVFAKTEVVDSDGSVKDKITAFIVERDFGGVTNGKPEDKLGIRGSNTCEVHFENTKIPVENILGEVGDGFKVAMNILNSGRFSMGSVVAGLLKRLIEMTAEYACTRKQFNKRLSEFGLIQEKFALMAQKAYVMESMTYLTAGMLDQPGFPDCSIEAAMVKVFSSEAAWQCVSEALQILGGLGYTRDYPYERILRDTRILLIFEGTNEILRMYIALTGLQHAGRILTTRIHELKQAKVSTVMDTVGRRLRDSLGRTVDLGLTGNHGVVHPSLADSANKFEENTYCFGRTVETLLLRFGKTIMEEQLVLKRVANILINLYGMTAVLSRASRSIRIGLRNHDHEVLLANTFCVEAYLQNLFSLSQLDKYAPENLDEQIKKVSQQILEKRAYICAHPLDRTC
For the protein B2, the “stoichiometry N” value in the data set “native MS” was found to be 2.
